The text below walks through data of PMC10403523.

Broadly, the Ki is the dissociation constant of the complex between target and ligand, obtained from inhibition or displacement.

The test system of data set [1] is yeast SWI/SNF complex, Snf2 delta-AT (Saccharomyces cerevisiae). The data set can be described thus: EMSA. The settings on record: apparent KD, Kd EMSA: 6.7 nM DNA or nucleosome, 1.3-23 nM SWI/SNF, 4% native PAGE (79:1), Methods: prebinding 30 C, 15 min, gel in 0.5x TBE, binding buffer, salt and pH not ….
The test system is the same in data set [2]. The data set is described as follows: competition. The note with it: EMSA competition against 601 DNA; Kd EMSA: 6.7 nM DNA or nucleosome, 1.3-23 nM SWI/SNF, 4% native PAGE (79:1); Methods: prebinding 30 C, 15 min, gel in 0.5x …; binding buffer, salt and pH not. A general note: A gel shift assay detects complexes by their altered migration in electrophoresis.

In the case of 29N59 nucleosome, the Kd in data set [1] (6.7 nM nucleosome, recombinant Xenopus laevis histone octamer) stood at 20.5 nM.

Turning to 235 bp 601 DNA, the Kd in data set [1] (6.7 nM DNA) was found to be 12.8 nM. In the case of pUC19 plasmid, in data set [2], the Ki was found to be 25 nM.
